Substrate: Cc1cn([C@H]2C[C@H](O)[C@@H](COP(=O)(O)OP(=O)(O)O[C@H]3O[C@@H](C)[C@H](O)[C@@H](O)[C@H]3O)O2)c(=O)[nH]c1=O
Experiment: anti-rhamnosylarginine Western blot, band intensity, Michaelis-Menten fit
Format: biochemical, Pseudomonas putida
Conditions: 2.5 μM unmodified EF-P of P. putida as acceptor, 0.1 μM EarP, 100 mM sodium phosphate pH 7.6, 30 °C, 20 s, commercial TDP-Rha

B1: EarPPpu (Pseudomonas putida KT2440) (protein)
chain: MKATWDIFCSVVDNYGDIGVTWRLARQLVAEHGLAVRLWVDDLNAFTPMCPGADATAAQQWQHGVDVRHWPAAWLPVAPADVVIGAFACQLPAAYVEAMRARPQPPLWLNLEYLSAEDWVEGCHGLPSPQPNGLRKVFFFPGFTDKTGGLLREGSLLARRDGFQQSAEARRAFLQGLGVDLVPGALLISLFAYENPQLGNWLDALATADQPCHLLVPQGRVVAGLSQWLGEGPLHVGDVRTRGALTVQVLPFVSQDDFDRLLWSCDFNAVRGEDSFVRAQWAGQPMLWHIYVQDENAHWEKLEAFLAHYRCGLSDDADAALLGLWRAWNMDFDMGQAWRAARQHWPELQQHARLWGARQAAQPDLATALVHFYRNSL
notes: C-terminal His6 tag kept; pBAD33-earPPpu, E. coli LMG194 host, Ni-NTA purified; GT-B fold, GT104 family
Km: 5 µM
